Data reported in paper PMC3433253 (Journal of molecular biology, 2012).
Where a chain is given by its changes, count along the chain named.

T1: CC2D1B(1-601) (UniProt Q5T0F9 1-601)
T1 sequence (looked up): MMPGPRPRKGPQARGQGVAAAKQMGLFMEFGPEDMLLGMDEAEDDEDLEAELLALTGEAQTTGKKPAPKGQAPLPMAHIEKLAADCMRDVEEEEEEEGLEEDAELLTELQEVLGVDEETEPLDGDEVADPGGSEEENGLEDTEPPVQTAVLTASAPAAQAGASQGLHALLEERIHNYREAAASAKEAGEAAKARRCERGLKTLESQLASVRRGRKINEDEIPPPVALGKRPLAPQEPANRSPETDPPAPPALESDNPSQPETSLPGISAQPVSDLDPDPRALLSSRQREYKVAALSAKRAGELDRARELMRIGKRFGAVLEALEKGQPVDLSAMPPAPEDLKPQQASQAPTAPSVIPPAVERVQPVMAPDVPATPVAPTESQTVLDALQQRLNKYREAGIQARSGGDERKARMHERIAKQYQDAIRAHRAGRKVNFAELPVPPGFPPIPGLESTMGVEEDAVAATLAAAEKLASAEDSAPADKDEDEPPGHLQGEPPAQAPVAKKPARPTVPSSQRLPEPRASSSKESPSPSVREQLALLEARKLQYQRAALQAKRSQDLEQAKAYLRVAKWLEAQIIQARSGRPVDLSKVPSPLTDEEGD

T2: MBP-CHMP4B(23-97) (UniProt Q9H444 23-97)
T2 sequence (looked up): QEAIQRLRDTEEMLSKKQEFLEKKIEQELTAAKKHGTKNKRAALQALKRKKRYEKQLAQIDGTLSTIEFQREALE

T3: CHMP4B(23-97), MBP removed (UniProt Q9H444)
T3 sequence (Q9H444 23-97, species assumed, looked up): T2 sequence (looked up)

B1: CC2D1A(309-494) (domain or fragment, human, UniProt Q6P1N0 309-494, looked up)
chain: SCLPPPPDQLPPDPPSPPSQPPTPATAPSTTEVPPPPRTLLEALEQRMERYQVAAAQAKSKGDQRKARMHERIVKQYQDAIRAHKAGRAVDVAELPVPPGFPPIQGLEATKPTQQSLVGVLETAMKLANQDEGPEDEEDEVPKKQNSPVAPTAQPKAPPSRTPQSGSAPTAKAPPKATSTRAQQQL
B2: CC2D1A(346-494) (domain or fragment, human, UniProt Q6P1N0 346-494, looked up)
chain: RTLLEALEQRMERYQVAAAQAKSKGDQRKARMHERIVKQYQDAIRAHKAGRAVDVAELPVPPGFPPIQGLEATKPTQQSLVGVLETAMKLANQDEGPEDEEDEVPKKQNSPVAPTAQPKAPPSRTPQSGSAPTAKAPPKATSTRAQQQL
B3: CHMP4B(7-110), MBP removed (domain or fragment, UniProt Q9H444 7-110, looked up)
chain: LFGAGGGKAGKGGPTPQEAIQRLRDTEEMLSKKQEFLEKKIEQELTAAKKHGTKNKRAALQALKRKKRYEKQLAQIDGTLSTIEFQREALENANTNTEVLKNMG
B4: MBP-CHMP4B(7-110) (domain or fragment, UniProt Q9H444 7-110, looked up)
chain: B3 chain
B5: MBP-CHMP4B(7-105) (domain or fragment, UniProt Q9H444 7-105, looked up)
chain: LFGAGGGKAGKGGPTPQEAIQRLRDTEEMLSKKQEFLEKKIEQELTAAKKHGTKNKRAALQALKRKKRYEKQLAQIDGTLSTIEFQREALENANTNTEV
B6: MBP-CHMP4B(7-105)_(mut1) (domain or fragment, UniProt Q9H444 7-105, looked up)
chain: B5 chain with R22A, R24A, D25R, E27R
B7: CC2D1A(346-455) (domain or fragment, human, UniProt Q6P1N0 346-455, looked up)
chain: RTLLEALEQRMERYQVAAAQAKSKGDQRKARMHERIVKQYQDAIRAHKAGRAVDVAELPVPPGFPPIQGLEATKPTQQSLVGVLETAMKLANQDEGPEDEEDEVPKKQNS

Columns and labels:
MBP-CHMP4B(7-110) = biological target: B4; experiment: ITC
CC2D1B(1-601) [1] = biological target: T1, CC2D1B(1-601); experiment: SEC-MALS
CC2D1B(1-601) [2] = biological target: T1, CC2D1B(1-601); experiment: ITC
CC2D1A(346-455) = biological target: B7; experiment: SPR
MBP-CHMP4B(23-97) = biological target: T2, MBP-CHMP4B(23-97); experiment: ITC
[3] = biological target: T3, CHMP4B(23-97), MBP removed; experiment: SEC-MALS

B1 was tested. Which dH (MBP-CHMP4B(7-110)) did it give?
The dH was -7380 kcal/mol.

And the “stoichiometry N” value (MBP-CHMP4B(7-110))?
The value was 0.84.

B2 was tested. Which dH (MBP-CHMP4B(7-110)) did it give?
Its dH is -8160 kcal/mol.

What about the “stoichiometry N” value (MBP-CHMP4B(7-110)) of the same binder?
Its value is 1.03.

With B3 as the binder, how does the “stoichiometry N” value (CC2D1B(1-601) [1]) read?
The value was 1.

B4 was tested. Which dH (CC2D1B(1-601) [2]) did it give?
Its dH is -13700 kcal/mol.

And the “stoichiometry N” value (CC2D1B(1-601) [2])?
Its value is 1.02.

Which results are given for B5?
koff (CC2D1A(346-455)): 0.0079 s⁻¹; kon (CC2D1A(346-455)): 25000 M⁻¹ s⁻¹

Which results are given for B6?
koff (CC2D1A(346-455)): 0.0017 s⁻¹; kon (CC2D1A(346-455)): 1200 M⁻¹ s⁻¹

B7 was tested. Which dH (MBP-CHMP4B(23-97)) did it give?
Its dH is -14600 kcal/mol.

And the “stoichiometry N” value (MBP-CHMP4B(23-97))?
The value was 0.9.

And the dH (MBP-CHMP4B(7-110))?
Its dH is -8190 kcal/mol.

What about the “stoichiometry N” value (MBP-CHMP4B(7-110)) of the same binder?
The value was 0.9.

And the stoichiometry N [3]?
Its stoichiometry N is 1.
